Results on four molecules are retold here after paper PMC3561355, “NMR Structure of Integrin α4 Cytosolic Tail and Its Interactions with Paxillin” (PLoS ONE, 2013).

B1: paxillin fragment residues G139-K277 (PaxLD2-LD4) (domain or fragment)
chain: MGSNLSELDRLLLELNAVQHNPPGFPADEANSSPPLPGALSPLYGVPETNSPLGGKAGPLTKEKPKRNGGRGLEDVRPSVESLLDELESSVPSPVPAITVNQGEMSSPQRVTSTQQQTRISASSATRELDELMASLSDFK
notes: initiation Met introduced before G139; paxillin residues G139-K277, holding the LD2, LD3 and LD4 repeats; Used 15N-labelled or unlabelled; also called recombinant paxillin (residues G139-K277 encompassing LD2-LD4); source: E. coli BL21(DE3), purified (NTA beads, HPLC)
B2: paxillin LD4-containing peptide (peptide)
peptide: ATRELDELMASLSDFKFMAQ
notes: paxillin stretch holding the LD4 repeat; runs four residues (FMAQ) beyond K277, the end of PaxLD2-LD4; also called peptide-containing LD4; source: synthetic peptide, bought: GL Biochem (Shanghai), further purified by reverse phase HPLC
B3: paxillin LD3-containing peptide (peptide)
peptide: VRPSVESLLDELESSVPSPV
notes: paxillin stretch holding the LD3 repeat; also called peptide-containing LD3; source: synthetic peptide, bought: GL Biochem (Shanghai), further purified by reverse phase HPLC
B4: integrin α4 cytosolic tail (Lys968-Asp999) (domain or fragment)
chain: KAGFFKRQYKSILQEENRRDSWSYINSKSNDD
notes: Used 15N-labelled or unlabelled in the HSQC experiments; also called α4 CT; full-length α4 CT; source: E. coli BL21(DE3), KSI fusion from inclusion bodies, purified (Ni-NTA, cyanogen bromide cleavage, HPLC); not shown: His6, N-terminal, cleaved; ketosteroid isomerase (KSI), N-terminal, cleaved

Settings in all cases: both partners purified
For experiment [1], the target named is B4. In words: NMR titration; 15N-1H HSQC of 15N-labelled α4 CT (100 µM) without and with unlabelled PaxLD2-LD4, molar ratios 1:1 and 1:2; 10 mM sodium phosphate, pH 6.5, 298 K.
Experiment [2] has as its target B4. Briefly: NMR titration; 15N-1H HSQC of 15N-labelled α4 CT without and with unlabelled synthetic LD-containing peptides, ratio 1:4 (α4 CT:peptides).
Experiment [3] addresses B1. In words: NMR titration; 15N-1H HSQC of 15N-labelled PaxLD2-LD4 (200 µM) without and with unlabelled α4 CT, molar ratios 1:1 and 1:2; 10 mM sodium phosphate, pH 6.5, 298 K.

For the molecule B1, the binding result in experiment [1] is on record as “binds”.
Take B2: in experiment [2], the binding result is reported as “binds”.
For B3, in experiment [2], the binding result was “binds”.
On to B4, for which, in experiment [3], the binding result was “binds”.
